Source: PMC4750549

Legend:
[1] = target: CD200 (Homo sapiens) (UniProt P41217); details: cited from earlier work
[2] = target: CD200 (Mus musculus) (UniProt O54901); details: cited from earlier work
[3] = target: CD200 (Rattus norvegicus) (UniProt P04218); details: cited from earlier work
[4] = target: rat CD200R rCD4d3+4 chimeric protein, biotinylated (rat) (UniProt Q9ES58); assay: SPR; BIAcore 3000, 37 °C, 10 mM HEPES pH 7.5, 150 mM NaCl, 3 mM EDTA, 0.02% P20; biotinylated rCD4d3+4 chimeras from concentrated tissue culture supernatants immobilised on streptavidin coated CM5 chip; purified monomeric soluble protein passed over in increasing concentrations; equilibrium binding, Langmuir isotherm
[5] = target: rabbit CD200R rCD4d3+4 chimeric protein, biotinylated (rabbit (Oryctolagus cuniculus)); assay: as above
[6] = target: rabbit CD200 rCD4d3+4 chimeric protein, biotinylated (rabbit (Oryctolagus cuniculus)); assay: as above

Sequence of UniProt O54901 (O54901 31-232): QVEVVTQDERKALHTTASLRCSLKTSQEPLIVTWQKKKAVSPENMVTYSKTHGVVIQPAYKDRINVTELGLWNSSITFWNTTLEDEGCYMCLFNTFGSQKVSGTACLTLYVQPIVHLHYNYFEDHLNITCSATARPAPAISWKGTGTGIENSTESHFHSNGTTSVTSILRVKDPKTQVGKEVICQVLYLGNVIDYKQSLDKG
Sequence of UniProt P04218 (P04218 31-232): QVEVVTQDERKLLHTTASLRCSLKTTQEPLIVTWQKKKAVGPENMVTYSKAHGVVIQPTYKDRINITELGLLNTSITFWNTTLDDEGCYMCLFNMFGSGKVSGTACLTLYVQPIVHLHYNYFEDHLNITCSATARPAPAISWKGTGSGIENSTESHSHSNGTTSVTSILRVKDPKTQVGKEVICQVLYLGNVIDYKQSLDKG
Sequence of UniProt P41217 (P41217 31-232): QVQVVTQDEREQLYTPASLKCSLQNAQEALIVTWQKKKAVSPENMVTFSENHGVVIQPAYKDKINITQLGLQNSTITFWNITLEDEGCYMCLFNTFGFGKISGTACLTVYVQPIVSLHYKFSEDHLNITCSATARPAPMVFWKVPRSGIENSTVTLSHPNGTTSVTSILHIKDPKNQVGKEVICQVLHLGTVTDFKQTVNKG
Sequence of rabbit CD200R rCD4d3+4 chimeric protein, biotinylated (rabbit (Oryctolagus cuniculus)) (main, as listed by the source mutant): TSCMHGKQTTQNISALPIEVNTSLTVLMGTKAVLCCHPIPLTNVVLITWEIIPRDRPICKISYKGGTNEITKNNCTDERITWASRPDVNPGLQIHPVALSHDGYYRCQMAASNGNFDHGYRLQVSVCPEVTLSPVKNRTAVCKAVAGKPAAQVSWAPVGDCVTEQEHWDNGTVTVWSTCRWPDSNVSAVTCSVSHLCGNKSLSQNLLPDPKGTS

Q: For CD200R (from UniProt Q8TD46), which Kd [1] is on record?
A: 0.5 µM

Q: With CD200R (from UniProt Q9ES57) as the substance, how does the Kd [2] read?
A: 4 µM

Q: Which Kd [3] does the source give for CD200R (from UniProt Q9ES58) here?
A: 1.5 µM

Q: Which Kd [4] does the source give for “soluble recombinant rabbit CD200 (extracellular region, His tag) (from UniProt A0A0S4XRM6 1-233) (ligand)” here?
A: 5.1 µM

Q: What about the Kd [5] of the same substance?
A: 3.3 to 3.4 µM

Q: With “soluble recombinant rabbit CD200R (extracellular region, His tag) (from UniProt A0A0S4XR64 1-238) (receptor)” as the substance, how does the Kd [6] read?
A: 3.3 to 3.4 µM
